The text below walks through data of publication PMC3283998 (The Journal of Cell Biology, 2012).

One may read the Kd as the constant that tells how readily two partners part at equilibrium.

The target of one assay is T1, Bub1(1–150) (human, UniProt O43683 1-150).
T1 sequence (looked up): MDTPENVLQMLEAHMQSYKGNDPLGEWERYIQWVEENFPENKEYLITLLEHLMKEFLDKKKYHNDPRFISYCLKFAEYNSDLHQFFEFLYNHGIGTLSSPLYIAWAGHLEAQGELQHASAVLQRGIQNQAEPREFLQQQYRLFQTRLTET
Description: fluorescence polarisation. Background: In fluorescence polarisation assays a small probe gives low polarisation when free and higher when bound to something large.

The target in another assay is BubR1(1–204) (human, UniProt O60566 1-204). Description: fluorescence polarisation.

Where no end group is shown, it is not given here.

BubR1(1–204), sequence (O60566 1-204): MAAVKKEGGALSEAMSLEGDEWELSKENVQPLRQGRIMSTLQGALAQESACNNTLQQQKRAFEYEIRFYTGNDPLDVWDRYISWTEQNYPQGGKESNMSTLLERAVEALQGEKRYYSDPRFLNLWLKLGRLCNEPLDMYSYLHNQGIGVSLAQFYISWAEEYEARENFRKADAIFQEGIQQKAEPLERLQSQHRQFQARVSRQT

In turn, STKIDTTSFLANLKLHT (peptide, UniProt Q8NG31-2 174-190, looked up, also: fluorescein (5-FAM) label, position not given here) [Fluorescein (5-FAM)-labeled Knl1(174–190) peptide] yielded an equilibrium dissociation constant (Kd) with Bub1(1–150) of around 35 µM. Consider ENKIDFNDFIKRLKTGK (peptide, UniProt Q8NG31-2 210-226, looked up, also: 5-FAM label, position not given here) [5-FAM–labeled synthetic peptide Knl1(210–226)], for which binding with BubR1(1–204) was put at a Kd of 450 nM.
